From doi:10.1101/2023.06.21.545551, “Intrinsically disordered regions in the transcription factor MYC:MAX modulate DNA binding via intramolecular interactions”

Columns and labels:
[1] = biological target: T1, MYC(2-439) full-length;MAX(2-160) (human?;human?, UniProt P01106-1;P61244 ;, |); experiment: SPR; negative control bound only by MYC(352-437):MAX; SPR: 25 mM HEPES pH 8, 150 mM NaCl, 1 mM TCEP, 0.01% Tween-20, 3 mM EDTA, temperature not stated; NMR: 20 mM HEPES pH 7, 100 mM NaCl (E100; or E300), 2 mM TCEP, 5% D2O, 298 K (complexes) or 283 K (disordered fragments); conditions: protein: recombinant;recombinant; tags: none;N-Strep-TEV, cleavable; copies: 1;1; label: 5'-biotin on strand 1; blunt
[2] = biological target: T2, MYC(151-439);MAX(2-160) of commercial complex (human?;human?, UniProt P01106-1;P61244 ;, |); experiment: as above; conditions: protein: commercial;commercial; copies: 1;1; label: 5'-biotin on strand 1; blunt
Mb0 peptide MYC(11-34) = Mb0 peptide MYC(11-34) (UniProt P01106-1); experiment: NMR; equimolar DNA; SPR: 25 mM HEPES pH 8, 150 mM NaCl, 1 mM TCEP, 0.01% Tween-20, 3 mM EDTA, temperature not stated; NMR: 20 mM HEPES pH 7, 100 mM NaCl (E100; or E300), 2 mM TCEP, 5% D2O, 298 K (complexes) or 283 K (disordered fragments); conditions: protein: recombinant; tags: His6-MBP-TEV cleaved; 13C-MTC on C25; blunt
MYC(256-299) = MYC(256-299) (UniProt P01106-1); experiment: NMR; SPR: 25 mM HEPES pH 8, 150 mM NaCl, 1 mM TCEP, 0.01% Tween-20, 3 mM EDTA, temperature not stated; NMR: 20 mM HEPES pH 7, 100 mM NaCl (E100; or E300), 2 mM TCEP, 5% D2O, 298 K (complexes) or 283 K (disordered fragments); conditions: protein: recombinant; tags: His6-ZZ-TEV cleaved; 15N; blunt
[3] = biological target: MYC(1-439)_C0,C25;MAX(2-160) (human?;human?, UniProt P01106-1;P61244 ;, C70A;C117A;C133A;C171A;C188A;C208A;C300A;C342A;C438A|); experiment: NMR; 13C-MTC on C25; 10-fold DNA; SPR: 25 mM HEPES pH 8, 150 mM NaCl, 1 mM TCEP, 0.01% Tween-20, 3 mM EDTA, temperature not stated; NMR: 20 mM HEPES pH 7, 100 mM NaCl (E100; or E300), 2 mM TCEP, 5% D2O, 298 K (complexes) or 283 K (disordered fragments); conditions: protein: recombinant;recombinant; tags: 13C-MTC label on C25;N-Strep-TEV, cleavable; copies: 1;1; blunt
[4] = biological target: MYC(352-437);MAX(2-160) co-expressed (human?;human?, UniProt P01106-1;P61244 ;, |); experiment: SPR; strongest of the four DNAs; Kd only in figure; SPR: 25 mM HEPES pH 8, 150 mM NaCl, 1 mM TCEP, 0.01% Tween-20, 3 mM EDTA, temperature not stated; NMR: 20 mM HEPES pH 7, 100 mM NaCl (E100; or E300), 2 mM TCEP, 5% D2O, 298 K (complexes) or 283 K (disordered fragments); conditions: protein: recombinant;recombinant; tags: N-His6 uncleavable;none; copies: 1;1; label: 5'-biotin on strand 1; blunt
[5] = biological target: T1, MYC(2-439) full-length;MAX(2-160); experiment: SPR; range over canonical and mutant E-Boxes; SPR: 25 mM HEPES pH 8, 150 mM NaCl, 1 mM TCEP, 0.01% Tween-20, 3 mM EDTA, temperature not stated; NMR: 20 mM HEPES pH 7, 100 mM NaCl (E100; or E300), 2 mM TCEP, 5% D2O, 298 K (complexes) or 283 K (disordered fragments); conditions: protein: recombinant;recombinant; tags: none;N-Strep-TEV, cleavable; copies: 1;1; label: 5'-biotin on strand 1; blunt
[6] = biological target: T2, MYC(151-439);MAX(2-160) of commercial …; experiment: SPR; affinity between P3+P6 and full length; SPR: 25 mM HEPES pH 8, 150 mM NaCl, 1 mM TCEP, 0.01% Tween-20, 3 mM EDTA, temperature not stated; NMR: 20 mM HEPES pH 7, 100 mM NaCl (E100; or E300), 2 mM TCEP, 5% D2O, 298 K (complexes) or 283 K (disordered fragments); conditions: protein: commercial;commercial; copies: 1;1; label: 5'-biotin on strand 1; blunt

T1 sequence (P01106 17-454, chain 1 of 2): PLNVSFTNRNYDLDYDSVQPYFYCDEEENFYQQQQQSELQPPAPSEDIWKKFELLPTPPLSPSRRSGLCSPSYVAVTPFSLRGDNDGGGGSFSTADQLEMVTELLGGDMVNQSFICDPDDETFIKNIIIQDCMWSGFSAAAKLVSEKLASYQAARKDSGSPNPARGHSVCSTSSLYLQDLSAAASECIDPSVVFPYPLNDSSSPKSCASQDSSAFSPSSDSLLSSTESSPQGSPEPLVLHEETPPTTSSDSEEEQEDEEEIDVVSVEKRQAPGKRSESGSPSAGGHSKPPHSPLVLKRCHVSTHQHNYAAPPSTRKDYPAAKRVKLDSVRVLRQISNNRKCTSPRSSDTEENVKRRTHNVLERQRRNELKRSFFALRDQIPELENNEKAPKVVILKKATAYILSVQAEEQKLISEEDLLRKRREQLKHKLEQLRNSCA
T1 sequence (P61244 other isoform, or with tags, fused parts or gaps |, chain 2 of 2): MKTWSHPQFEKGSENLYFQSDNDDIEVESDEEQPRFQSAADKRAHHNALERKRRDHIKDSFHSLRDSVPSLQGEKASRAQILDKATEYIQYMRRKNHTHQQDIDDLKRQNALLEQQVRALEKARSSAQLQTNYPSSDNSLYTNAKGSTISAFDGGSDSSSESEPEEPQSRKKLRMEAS
T2 sequence (P01106 166-454, chain 1 of 2): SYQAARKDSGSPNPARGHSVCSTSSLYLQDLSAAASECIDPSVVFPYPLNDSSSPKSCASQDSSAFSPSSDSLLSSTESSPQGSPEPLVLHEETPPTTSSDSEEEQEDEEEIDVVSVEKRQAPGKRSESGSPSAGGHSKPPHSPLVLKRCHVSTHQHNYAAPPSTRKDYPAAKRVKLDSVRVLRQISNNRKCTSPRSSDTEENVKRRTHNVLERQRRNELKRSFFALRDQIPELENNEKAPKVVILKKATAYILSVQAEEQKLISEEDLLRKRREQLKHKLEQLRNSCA
T2 sequence (P61244 other isoform, or with tags, fused parts or gaps |, chain 2 of 2): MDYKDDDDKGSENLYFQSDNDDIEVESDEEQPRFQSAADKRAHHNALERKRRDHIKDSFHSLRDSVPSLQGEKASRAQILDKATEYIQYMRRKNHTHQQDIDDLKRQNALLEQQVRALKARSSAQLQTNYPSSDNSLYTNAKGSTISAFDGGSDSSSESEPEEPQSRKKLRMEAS
Sequence of MYC(352-437);MAX(2-160) co-expressed (P01106 other isoform, or with tags, fused parts or gaps |, chain 1 of 2): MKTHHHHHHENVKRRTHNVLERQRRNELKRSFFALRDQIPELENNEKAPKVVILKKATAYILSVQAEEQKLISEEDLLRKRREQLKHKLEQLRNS
Sequence of MYC(352-437);MAX(2-160) co-expressed (P61244 whole entry, chain 2 of 2, the tested form may be a part): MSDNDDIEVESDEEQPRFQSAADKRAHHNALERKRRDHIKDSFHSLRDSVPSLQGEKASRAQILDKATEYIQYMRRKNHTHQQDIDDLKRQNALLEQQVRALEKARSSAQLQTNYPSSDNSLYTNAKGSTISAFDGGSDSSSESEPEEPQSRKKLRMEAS
Sequence of MYC(1-439)_C0,C25;MAX(2-160) (P01106 other isoform, or with tags, fused parts or gaps C70A;C117A;C133A;C171A;C188A;C208A;C300A;C342A;C438A|, chain 1 of 2): as the sequence (P01106 17-454, chain 1 of 2) above, with C24A, C69A, C116A, C132A, C170A, C187A, C207A, C299A, C341A, C437A counted along it
Sequence of MYC(256-299) (P01106 other isoform, or with tags, fused parts or gaps): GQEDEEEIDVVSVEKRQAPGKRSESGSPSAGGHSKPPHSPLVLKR
Sequence of Mb0 peptide MYC(11-34) (P01106 other isoform, or with tags, fused parts or gaps): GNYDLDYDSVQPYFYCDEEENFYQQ

B1: Negative control (dsDNA)
DNA 1: CCGGTTTAGCAGCCTA
DNA 2: TAGGCTGCTAAACCGG
Q: Does B1 bind [1]?
A: Result: no binding

Q: Does B1 bind [2]?
A: Result: no binding

B2: E-Box (NMR) (dsDNA)
DNA 1: CCGGTCACGTGGCCTA
DNA 2: TAGGCCACGTGACCGG
Q: Which results are given for B2?
A: binding result (Mb0 peptide MYC(11-34)): no binding; binding result (MYC(256-299)): no binding; binding result [3]: binds

B3: E-Box (SPR) (dsDNA)
DNA 1: CCGGTCACGTGGCCTA
DNA 2: TAGGCCACGTGACCGG
Q: Does B3 bind [4]?
A: Result: binds

Q: Does B3 bind [5]?
A: Result: binds

Q: Does B3 bind [6]?
A: Result: binds
